According to patent US20210300992A1:

Columns and labels:
[1] = biological target: human leukemia inhibitory factor (LIF), soluble (human) (UniProt P15018); assay: yeast surface display, flow cytometry; Score column of the table of sorted gp130 CBM variants (the filing gives 100 pM and 1 nM human LIF for the gp130 binding scores)
[2] = biological target: human leukemia inhibitory factor (LIF), soluble (human) (UniProt P15018); assay: yeast surface display, flow cytometry; soluble human LIF titrated (0.001 to 100 nM), detected with a fluorescent antibody
[3] = biological target: human leukemia inhibitory factor (LIF), soluble (human) (UniProt P15018); assay: yeast surface display, flow cytometry; score from summed fluorescence at 10 pM and 100 pM human LIF, normalized to wild-type and to expression

human leukemia inhibitory factor (LIF), soluble (human), sequence (P15018 23-202 limits assumed): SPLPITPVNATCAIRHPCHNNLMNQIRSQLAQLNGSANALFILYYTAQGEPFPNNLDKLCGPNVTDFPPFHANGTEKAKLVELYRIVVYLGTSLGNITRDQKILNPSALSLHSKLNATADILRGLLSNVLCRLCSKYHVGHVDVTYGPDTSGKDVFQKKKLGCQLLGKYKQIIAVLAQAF

Substance | Score (binding score) [1] | EC50 (read off the curve) [2] [nM] | Score (normalized binding score) [3]
ELDI (receptor) | 15.9 | – | –
ELRDSLE (receptor) | 23.6 | – | –
PDD (receptor) | – | 0.4 | 7.71
PRDSAID (receptor) | – | – | 15.8
PVVIDN (receptor) | – | – | 13.9
